Target: IL2 (R&D, 202-IL) (UniProt P60568 21-153)
Assay: ELISA, scFv on anti-V5
Description: The scFv DNA sequence for each clone was synthesized as a GBLOCK® (Integrated DNA Technologies, Inc.) with a T7 promoter, a translation initiation site, the coding sequence for the scFv sequence with cMyc and V5 tags, and a T7 terminator sequence. Proteins from each of the GBLOCK® fragments were expressed using a cell-free transcription/translation system (Cosmo Bio USA, Inc., PUREFREX® 2.1, Product #GFK-PF213 with DS Supplement, Prod. #GFK-PF005). […] In these experiments, wells of a 384-well plate were coated with an anti-V5 antibody (Sv5-Pk1, BioRad) at lug/ml overnight at 4 degrees. After washing, wells were blocked with SUPERBLOCK™ (ThermoFisher, 37515) followed by addition of saturating levels of scFvs in SUPERBLOCK™. After washing, antigens were added and plates incubated for one hour. To detect PD1 binding, a biotinylated recombinant PD1 was used (PD1-HisAvi, Acro Biosystems, PD1-H82E4). […] Biotinylated antigens were detected using streptavidin HRP using standard methods. Varying amounts of labelled test antigen were added to show binding and to estimate relative affinities of the different scFvs.

| binding result | Binder |
| --- | --- |
| no binding | AB000880 (anti-PD1 control) scFv (AF000327) (scFv, also called AB000880_PD1_R04_C10) scFv: MSTSTEQKLISEEDLQVQLVQSGAEVKKPGASVKVSCKASGYTFTTYYMHWVRQAPGQGLEWMGIINPSGGGTLYAQKFQGRVTMTRDTSTSTVYMELSSLRSEDTAVYYCAAGLFIWGQGTTVTVSSASGGGGSGGGGSGGGGSHASDIVMTQSPDSLAVSLGERATINCKASQSLLHSSSNKNYLAWYQQKPGQPPKLLIYWASTRESGVPDRFSGSGSGTDFTLTISSLQAEDVAVYYCQQYYSTPITFGPGTKVDIKGSGLNDIFEAQKIEWHEGKPIPNPLLGLDST |
| no binding | AB000694 (anti-PD1 control) scFv (AF005039) (scFv, V domains shown, scFv with cMyc and V5 tags; also called AB000694_nivo) VH: QVQLVESGGGVVQPGRSLRLDCKASGITFSNSGMHWVRQAPGKGLEWVAVIWYDGSKRYYADSVKGRFTISRDNSKNTLFLQMNSLRAEDTAVYYCATNDDYWGQGTLVTVSS VL: EIVLTQSPATLSLSPGERATLSCRASQSVSSYLAWYQQKPGQAPRLLIYDASNRATGIPARFSGSGSGTDFTLTISSLEPEDFAVYYCQQSSNWPRTFGQGTKVEIK |

From patent publication US20240366776A1 (Hoffmann-La Roche, published 2024)
